According to the RNAGym collection of RNA variant scans (doi:10.7554/elife.80360):

B1: Hairpin Ribozyme (parent)
chain: GUCCUCUUUCACGUGCGCGUGAAAGAGAGAAGUGAACCAGAGAAACACACGUUGUGGUAUAUUACCUGGUA

Variants of: B1
Assay: self-cleavage, relative activity (ratio to wild type); higher = more cleavage; co-transcriptional

Variant | self-cleavage
GUCUUCUGUCACGUGCGCGUGAAAGAGAGAAGUGAACCAGAGAAACACACGUUGUGGUAUAUUACCUGGUA [C4U U8G] | 0.204
GUCUUCUUUCACGUGCGCCUGAAAGAGAGAAGUGAACCAGAGAAACACACGUUGUGGUAUAUUACCUGGUA [C4U G19C] | 0.219
GUCUUCUUUCACGUGCGCAUGAAAGAGAGAAGUGAACCAGAGAAACACACGUUGUGGUAUAUUACCUGGUA [C4U G19A] | 0.327
GUCUUCUUGCACGUGCGCGUGAAAGAGAGAAGUGAACCAGAGAAACACACGUUGUGGUAUAUUACCUGGUA [C4U U9G] | 0.178
GUCUUCUUUCACGUGCGCGUGAAAGAGAGAAGUGAACCAGAGAAACACACGUUGUGGUAUACUACCUGGUA [C4U U62C] | 0.16
GUCUUCUUUCACGUGCGCGUGAAAGAGAGAAGUGAACCAGAGAAACACACGUUGUGGUAUAGUACCUGGUA [C4U U62G] | 0.181
GUCUACUUUCACGUGCGCGUGAAAGAGAGAAGUGAACCAGAGAAACACACGUUGUGGUAUAUUACCUGGUA [C4U U5A] | 0.0527
GUCUUCUUUCACGUGCGCGUGAAAGAGAGAAGUGAACCAGAGAAACACACGUUGUGGUAUAUUACCAGGUA [C4U U67A] | 0.121
GUCUUCUUUCACGUGCGCGUGAAAGAGAGAAGUGAACCAGAGAAACACACGUUGUGGUCUAUUACCUGGUA [C4U A59C] | 0.126
GUCUUCUUUCACGUGCGCGUGAAAGAGAGAAGUGAACCACAGAAACACACGUUGUGGUAUAUUACCUGGUA [C4U G40C] | 0.13
GUCUUCUUUCACGUGCGCGUGAAAGAGAGAAGUGAACCAGAGAAACACACGUUGUGGAAUAUUACCUGGUA [C4U U58A] | 0.172
GUCCACUUUCACGUGCGCGUGAAGGAGAGAAGUGAACCAGAGAAACACACGUUGUGGUAUAUUACCUGGUA [U5A A24G] | 0.381
GUCCACUUUCACGUGCGCGUGAACGAGAGAAGUGAACCAGAGAAACACACGUUGUGGUAUAUUACCUGGUA [U5A A24C] | 0.314
GUCCACUUUCACGUGCGCGUGAAAGAGAGAAGUGAGCCAGAGAAACACACGUUGUGGUAUAUUACCUGGUA [U5A A36G] | 0.427
GUCUUCUUUCACGUGCGCGUGAAAGAGAGAAGUGAACCAGAGAAGCACACGUUGUGGUAUAUUACCUGGUA [C4U A45G] | 0.199
GUCUUCUUUCACGUGCGCGUGAAAGAGAGAAGUGAACCAGAGAACCACACGUUGUGGUAUAUUACCUGGUA [C4U A45C] | 0.122
GUCUUCUUUCACGUGCGCGUGAAAGAGAGAAGUGAACCAGAGAAACACACGUUGUGGUAUAUGACCUGGUA [C4U U63G] | 0.103
GUCUUCUUUCACGUGCGCGUGAAAGAGGGAAGUGAACCAGAGAAACACACGUUGUGGUAUAUUACCUGGUA [C4U A28G] | 0.458
GUCUUCUUUCACGUGCGCGUGAAAGAGAGAAGUGAACCAGAGAAACACACGUUGUGGUAAAUUACCUGGUA [C4U U60A] | 0.199
GUCUUCUUUCACGUGCGCGUGAAAGAGAGAAGUGAACCAGAGAAACACACGUUGUGGUACAUUACCUGGUA [C4U U60C] | 0.48
GUCUUCAUUCACGUGCGCGUGAAAGAGAGAAGUGAACCAGAGAAACACACGUUGUGGUAUAUUACCUGGUA [C4U U7A] | 0.296
GUCCACUUUCCCGUGCGCGUGAAAGAGAGAAGUGAACCAGAGAAACACACGUUGUGGUAUAUUACCUGGUA [U5A A11C] | 0.281
GUCUUCUUUCACGUGCGCGUGAAAGAGAGAAGUGAACCAGAGAAACACAUGUUGUGGUAUAUUACCUGGUA [C4U C50U] | 0.213
GUCUUCUUUCACGUGCGCGUGAAAGAGAGAAGUGAACCAGAGAAACACAAGUUGUGGUAUAUUACCUGGUA [C4U C50A] | 0.203
GUCUUCUUUCACGUGCGCGUGAAAGAGAGAAGUGAAACAGAGAAACACACGUUGUGGUAUAUUACCUGGUA [C4U C37A] | 0.158
GUCCACUUUCACGUGCGCGUGAAAGAGAGAUGUGAACCAGAGAAACACACGUUGUGGUAUAUUACCUGGUA [U5A A31U] | 0.14

Variant | self-cleavage
GUCUUCUUUCACGUGCGCGUGAAAGAGAGAAGUGAACCAGAGAGACACACGUUGUGGUAUAUUACCUGGUA [C4U A44G] | 0.269
GUCUUAUUUCACGUGCGCGUGAAAGAGAGAAGUGAACCAGAGAAACACACGUUGUGGUAUAUUACCUGGUA [C4U C6A] | 0.0821
GUCUUGUUUCACGUGCGCGUGAAAGAGAGAAGUGAACCAGAGAAACACACGUUGUGGUAUAUUACCUGGUA [C4U C6G] | 0.0904
GUCUUUUUUCACGUGCGCGUGAAAGAGAGAAGUGAACCAGAGAAACACACGUUGUGGUAUAUUACCUGGUA [C4U C6U] | 0.192
GUCUUCUUUCACGUGCGCGUGAAAGAGAGAAGUGUACCAGAGAAACACACGUUGUGGUAUAUUACCUGGUA [C4U A35U] | 0.199
GUCUUCUUUCACGUGCGCGUGAAAGAGAGAAGUGAACCAGAGAAACACACGUGGUGGUAUAUUACCUGGUA [C4U U53G] | 0.412
GUCUUCUUUCACGUGCGCGGGAAAGAGAGAAGUGAACCAGAGAAACACACGUUGUGGUAUAUUACCUGGUA [C4U U20G] | 0.213
GUCUUCUUUCACGUGCGCGUGAAAGAGAGAAGUGAACCAGAGAAACACACGUUGUGGUAUAUUACGUGGUA [C4U C66G] | 0.217
GUCUUCUUUCACGUGCGCGUGAAAGAGAGAAGUGAACCAGAGAAACACACGUUGUGGUAUAUUACAUGGUA [C4U C66A] | 0.182
GUCUUCUUUCACGUGCGCGUGAAAGAGAGAAGUGAACCAGAGAAACACACGUUGUGAUAUAUUACCUGGUA [C4U G57A] | 0.155
GUCUUCUUUCACGUGCGCGUGAAAGAGAGAAGUGAACCAGAGAAACACACGUUGUGUUAUAUUACCUGGUA [C4U G57U] | 0.161
GUCUUCUUUCACGUGCGCGUGAAAGAGAGAAGUGAACCAGAGAAACACACGUUGUGCUAUAUUACCUGGUA [C4U G57C] | 0.226
GUCUUCUUUCACGUGCGCGUGAAAGAGAGAAGUGAACCAGAGAAACACACGUUGUGGUAUAUUACCUGGAA [C4U U70A] | 0.299
GUCUUCUUUCACGUGCGCGUGAAAGAGAGAAGUGAACCAGAGAAACACACGUUGUGGUAUAUUACCUGGCA [C4U U70C] | 0.341
GUCUUCUUUCACGUGCGCGUGAAAGAGAGCAGUGAACCAGAGAAACACACGUUGUGGUAUAUUACCUGGUA [C4U A30C] | 0.104
GUCUUCUUUCACGUGCGCGUGAAAGAGAGGAGUGAACCAGAGAAACACACGUUGUGGUAUAUUACCUGGUA [C4U A30G] | 0.128
GUCUUCUUUCACGUGCGCGUUAAAGAGAGAAGUGAACCAGAGAAACACACGUUGUGGUAUAUUACCUGGUA [C4U G21U] | 0.222
GUCUUCUUUCACGUGCGCGUCAAAGAGAGAAGUGAACCAGAGAAACACACGUUGUGGUAUAUUACCUGGUA [C4U G21C] | 0.328
GUCUUCUUUCACGUGCGCGUGAAAGAGAGAAGUGAACCAGAGAAACACACGUUGUGGUAUAUUACCUGUUA [C4U G69U] | 0.177
GUCUUCUUUCACGUGCGCGUGAAAGAGAGAAGUGAACCAGAGAAACACACGUUGUGGUAUAUUUCCUGGUA [C4U A64U] | 0.205
GUCCACUUUCACGUGCGCGUGAAAGAGAGAAGUGAACCAGAGAAACACACGUUGUGGUAUAUUACCUGGUA [U5A] | 0.368
GUCUUCUUUCACGUGCGCGUGAAAGAGAGAAGUGAACCAGAGAAAAACACGUUGUGGUAUAUUACCUGGUA [C4U C46A] | 0.164
GUCUUCUUUCACGUGCGCGUGAAAGAGAGAAGUGAACCAGAGAAAGACACGUUGUGGUAUAUUACCUGGUA [C4U C46G] | 0.121
GUCUUCUUUCACGUGCGCGUGAAAGACAGAAGUGAACCAGAGAAACACACGUUGUGGUAUAUUACCUGGUA [C4U G27C] | 0.229
GUCUUCUUUCACGUGCGCGUGAAAGAUAGAAGUGAACCAGAGAAACACACGUUGUGGUAUAUUACCUGGUA [C4U G27U] | 0.118
GUCUUCUUUCAUGUGCGCGUGAAAGAGAGAAGUGAACCAGAGAAACACACGUUGUGGUAUAUUACCUGGUA [C4U C12U] | 0.357

Variant | self-cleavage
GUCUUCUUUCACGUGCGCGUGAAAGAGAGAAGGGAACCAGAGAAACACACGUUGUGGUAUAUUACCUGGUA [C4U U33G] | 0.0889
GUCUUCUUUCACGUGCGCGUGAAAGAGAGAAGAGAACCAGAGAAACACACGUUGUGGUAUAUUACCUGGUA [C4U U33A] | 0.283
GUCUUCUUUCACGUGCGAGUGAAAGAGAGAAGUGAACCAGAGAAACACACGUUGUGGUAUAUUACCUGGUA [C4U C18A] | 0.4
GUCUUCUUUCACGUGCGCGUGAAAGAGAGAAGUGAACCAGAGAAACACACGUUGUGGUAUAUUAUCUGGUA [C4U C65U] | 0.175
GUCUUCUUUAACGUGCGCGUGAAAGAGAGAAGUGAACCAGAGAAACACACGUUGUGGUAUAUUACCUGGUA [C4U C10A] | 0.177
GUCUUCUUUCACGUGCGCGUGAAAGAGAGAAGUGAACCAGAGAAACACACGUUGUGGUAUAUUACCUGGUG [C4U A71G] | 0.426
GUCUUCUUUCACGUGCGCGUGAAAGAGAGAAGUGAACCAGAGAAACACACGUUGAGGUAUAUUACCUGGUA [C4U U55A] | 0.0732
GUCUUCUUUCACGUGCGCGUGAAAGAGAGAAGUGAACCUGAGAAACACACGUUGUGGUAUAUUACCUGGUA [C4U A39U] | 0.188
GUCUUCUUUCACGUGCGCGUGAAAGAGAGAAGUGAACCAGAGAAACACACGUUCUGGUAUAUUACCUGGUA [C4U G54C] | 0.364
GUCUUCUUUCACGUGCGCGUGAAAGAGAGAAGUGAACCAGAGAAACACACGUUAUGGUAUAUUACCUGGUA [C4U G54A] | 0.166
GUCUUCUUUCACGUGCGCGUGAAAGAGAGAAGUGAACCAGAGGAACACACGUUGUGGUAUAUUACCUGGUA [C4U A43G] | 0.141
GUCUUCUUUCACGUGCGCGUGAAAGGGAGAAGUGAACCAGAGAAACACACGUUGUGGUAUAUUACCUGGUA [C4U A26G] | 0.221
GUCUUCUUUCACGUGCGCGUGAAAGAGAGAAGUGAACCAGAAAAACACACGUUGUGGUAUAUUACCUGGUA [C4U G42A] | 0.27
GUCCACUUUCACGUGCGCGUGAAAGCGAGAAGUGAACCAGAGAAACACACGUUGUGGUAUAUUACCUGGUA [U5A A26C] | 0.491
GUCUUCUUUCACGUGUGCGUGAAAGAGAGAAGUGAACCAGAGAAACACACGUUGUGGUAUAUUACCUGGUA [C4U C16U] | 0.362
GUCUUCUUUCACGUGCGCGUGAAAGAGAGAAGUGAACCAGAGAAACACACGCUGUGGUAUAUUACCUGGUA [C4U U52C] | 0.481
GUCUUCUUUCACGUGCGCGUGAAAGAGAGAAGUGAACCAGAGAAACACACGGUGUGGUAUAUUACCUGGUA [C4U U52G] | 0.209
GUCUUCUUUCACGUGCGCGUGAAAGAGAGAAGUGAACCAGGGAAACACACGUUGUGGUAUAUUACCUGGUA [C4U A41G] | 0.299
GUCUUCUUUCACGUGCGCGUGAAAGAGAGAAGUGAACCAGAGAAACACUCGUUGUGGUAUAUUACCUGGUA [C4U A49U] | 0.128
GUCUUCUUUCACGUGCGCGUGAAAGAGAGAAGUGAACCAGAGAAACACCCGUUGUGGUAUAUUACCUGGUA [C4U A49C] | 0.259
GUCUUCUUUCACGUGCACGUGAAAGAGAGAAGUGAACCAGAGAAACACACGUUGUGGUAUAUUACCUGGUA [C4U G17A] | 0.263
GUCUUCUUUCACGUGCGCGUGAAAGAGAGAAGUGAACAAGAGAAACACACGUUGUGGUAUAUUACCUGGUA [C4U C38A] | 0.13
GUCUUCUUUCACGUGCGCGUGAAAGAGAGAAGUGAACGAGAGAAACACACGUUGUGGUAUAUUACCUGGUA [C4U C38G] | 0.0751
GUCUUCUUUCACGUGCGCGUGAAAGAGAGAAGUGAACCAGAGAAACACACGUUGUAGUAUAUUACCUGGUA [C4U G56A] | 0.161
